Measured values reported in PMC8415317 (Genes & Development, 2021).
Where no end group is shown, it is not given here.

Legend:
ERH-2 [1] = type: binding, C. elegans
ERH-1 [2] = molecular target: T1, ERH-1 (Caenorhabditis elegans, UniProt Q22640); experiment: Isothermal titration calorimetry, binding to ERH-1; design: species or system C. elegans
T1 sequence (Q22640 1-103): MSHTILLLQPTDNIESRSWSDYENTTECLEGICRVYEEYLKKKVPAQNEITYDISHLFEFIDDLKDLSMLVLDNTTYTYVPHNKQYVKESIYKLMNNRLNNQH

ERH-2:PID-3^pep 1:2 = molecular target: T2, ERH-2:PID-3^pep 1:2 (Caenorhabditis elegans, UniProt O76616+Q20057); experiment: Isothermal titration calorimetry, binding to ERH-2:PID-3^pep 1:2; design: species or system C. elegans
T2 sequence (Q20057 1-113): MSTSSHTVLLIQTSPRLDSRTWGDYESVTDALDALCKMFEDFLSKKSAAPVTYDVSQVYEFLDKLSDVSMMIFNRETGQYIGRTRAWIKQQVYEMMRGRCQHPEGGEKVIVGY
T2 sequence (O76616 171-203 partner limits assumed): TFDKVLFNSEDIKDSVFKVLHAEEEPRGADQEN

ERH-2 [3] = molecular target: T3, ERH-2 (Caenorhabditis elegans, UniProt Q20057); experiment: NMR-monitored titration of 15N-labeled ERH-2; type: binding, C. elegans; conditions: 1H-15N HSQC titration, 25°C, NMR buffer pH 7.50, ERH-2 ~200 μM
T3 sequence (Q20057 1-113): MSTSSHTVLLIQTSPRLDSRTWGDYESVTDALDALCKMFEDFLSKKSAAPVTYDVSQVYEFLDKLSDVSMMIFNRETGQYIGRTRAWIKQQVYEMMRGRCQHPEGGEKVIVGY

ERH-2 [4] = molecular target: T3, ERH-2; experiment: Isothermal titration calorimetry, binding to ERH-2; design: species or system C. elegans
ERH-2 [5] = experiment: Streptavidin pull-down, TOST-1/PID-1 mVenus-Strep bait with ERH-2; type: binding, C. elegans; conditions: TOST-1 or PID-1 mVenus-Strep bait 10-20 μM, prey 1.2-fold molar excess, 4°C
ERH-1 [6] = molecular target: T1, ERH-1; experiment: Streptavidin pull-down, TOST-1/PID-1 mVenus-Strep bait with ERH-1; type: binding, C. elegans; conditions: TOST-1 or PID-1 mVenus-Strep bait 10-20 μM, prey 1.2-fold molar excess, 4°C
TOST-1-mVenus-Strep = molecular target: T4, TOST-1-mVenus-Strep (C. elegans, UniProt Q18490 1-142); experiment: pull-down
T4 sequence (looked up): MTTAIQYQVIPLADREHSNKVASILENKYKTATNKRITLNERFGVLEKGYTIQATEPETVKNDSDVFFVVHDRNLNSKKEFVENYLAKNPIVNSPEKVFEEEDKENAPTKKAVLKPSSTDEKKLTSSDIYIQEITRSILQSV

[7] = SEC-MALS, molecular mass and oligomeric state; type: physicochemical, C. elegans; conditions: for average molecular mass: 2-5 mg/mL, 20 mM Tris/HCl pH 7.5, 150 mM NaCl, 2 mM DTT
TOST-1 = experiment: Streptavidin pull-down of ERH-2 variants with TOST-1-mVenus-Strep; type: binding, C. elegans; conditions: ERH-2 variants as prey, TOST-1-mVenus-Strep as bait
TOFU-6^RRM = molecular target: T5, TOFU-6^RRM (C. elegans, UniProt Q09293 1-99); experiment: SEC
T5 sequence (looked up): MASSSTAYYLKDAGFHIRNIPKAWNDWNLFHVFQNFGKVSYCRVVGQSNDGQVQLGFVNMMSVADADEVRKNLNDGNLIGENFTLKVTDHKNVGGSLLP

SEC-MALS = molecular target: the molecule itself; experiment: SEC-MALS
full-length ERH-2^FL = molecular target: T6, full-length ERH-2^FL (C. elegans, UniProt Q20057 1-113); experiment: ITC
T6 sequence (looked up): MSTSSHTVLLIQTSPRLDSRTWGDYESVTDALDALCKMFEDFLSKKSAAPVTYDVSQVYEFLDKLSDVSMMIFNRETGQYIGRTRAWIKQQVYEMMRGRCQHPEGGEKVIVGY

PID-3/TOFU-6 interaction = type: binding, C. elegans
[8] = molecular target: Cy5-labeled 16-mer oligo(U) RNA; experiment: Fluorescence anisotropy RNA binding, Cy5-U16; conditions: 100 nM Cy5-U16 RNA, 10 mM Tris/HCl pH 7.5, 50 mM KCl, 0.5 mM EDTA, ≥2 h at 15°C, single binding site model, n = 3 technical replicates

GST-PID-3^pep: GST-tagged PID-3 peptide (residues 171–203) (TFDKVLFNSEDIKDSVFKVLHAEEEPRGADQEN; also: N-terminal His6 and GST tags, order not given here)
binding to ERH-2 in GST pull-down (ERH-2 [1]): ERH-2 could indeed bind to GST-PID-3^pep

KYKTATNKRITLNERFGVLEKGYTIQ [TOST-1^pep]
Kd (ERH-1 [2]): 10 ± 2 µM | Kd (ERH-2:PID-3^pep 1:2): 4 ± 2 µM | dissociation constant range from NMR exchange regime (ERH-2 [3]): micromolar range

NYNTNLHRKVTLSDRFELAALGYEMKAK [PID-1^pep]
Kd (ERH-2 [4]): 24 ± 3 µM | Kd (ERH-1 [2]): 73 ± 11 µM | dissociation constant range from NMR exchange regime (ERH-2 [3]): micromolar range

PID-1: full-length PID-1, C-terminally tagged with monomeric Venus StrepII tag (NYNTNLHRKVTLSDRFELAALGYEMKAK)
binding to ERH-2 in streptavidin pull-down (ERH-2 [5]): Both PID-1 and TOST-1 bound ERH-2 | binding to ERH-1 in streptavidin pull-down (ERH-1 [6]): interacted with ERH-1

B1: ERH-2 T13E (purified) (natural protein, C. elegans, UniProt Q20057 1-113, looked up)
chain: MSTSSHTVLLIQESPRLDSRTWGDYESVTDALDALCKMFEDFLSKKSAAPVTYDVSQVYEFLDKLSDVSMMIFNRETGQYIGRTRAWIKQQVYEMMRGRCQHPEGGEKVIVGY
binding result (TOST-1-mVenus-Strep): binds

B2: PID-3/ERH-2: PID-3/ERH-2 subcomplex (protein, UniProt O76616 1-307; Q20057 1-113, looked up)
Protein pid-3: MVAHQKADFKSKWAMVVTVNNLNDKKRADLREFSEWFIETLRLEGAFIGHYFNYEAAPVTIVETLPGNFDSCTNAYQKIHKEHPQVVLVVHILPQSQSNEYEWMKVLASRYGFVRQGLLYDNCANRFQNVETDQNSVFRNMCQWIYRSGTAIVRNEGNACGILHGKDPKPTFDKVLFNSEDIKDSVFKVLHAEEEPRGADQENMLKISGYPGMLNTFGIAQLLTPYRVNGITITGAQSAVVALENKFQVYQAVQDFNGKKLDRNHKLQVSSLVVSSPAVPLEWPSLKKSKKLVEQVGKPIRLSKVSS
Enhancer of rudimentary …: MSTSSHTVLLIQTSPRLDSRTWGDYESVTDALDALCKMFEDFLSKKSAAPVTYDVSQVYEFLDKLSDVSMMIFNRETGQYIGRTRAWIKQQVYEMMRGRCQHPEGGEKVIVGY
average molecular mass [7]: 92 kDa

B3: ERH-2: full-length C. elegans ERH-2 (protein, UniProt Q20057 1-113, looked up)
chain: MSTSSHTVLLIQTSPRLDSRTWGDYESVTDALDALCKMFEDFLSKKSAAPVTYDVSQVYEFLDKLSDVSMMIFNRETGQYIGRTRAWIKQQVYEMMRGRCQHPEGGEKVIVGY
modifications: full-length
oligomeric state [7]: homodimers | average molecular mass [7]: 27 kDa

B4: I81A/R83A (protein)
chain: MSTSSHTVLLIQTSPRLDSRTWGDYESVTDALDALCKMFEDFLSKKSAAPVTYDVSQVYEFLDKLSDVSMMIFNRETGQYAGATRAWIKQQVYEMMRGRCQHPEGGEKVIVGY
modifications: left off: His6, N-terminal, state not stated | Trx, N-terminal, state not stated
binding to TOST-1 in streptavidin pull-down (TOST-1): weaker interaction with TOST-1

B5: W87A (protein)
chain: MSTSSHTVLLIQTSPRLDSRTWGDYESVTDALDALCKMFEDFLSKKSAAPVTYDVSQVYEFLDKLSDVSMMIFNRETGQYIGRTRAAIKQQVYEMMRGRCQHPEGGEKVIVGY
modifications: left off: His6, N-terminal, state not stated | Trx, N-terminal, state not stated
binding to TOST-1 in streptavidin pull-down (TOST-1): weaker interaction with TOST-1

B6: PID-3^RRM (domain or fragment, C. elegans, UniProt O76616 196-274, looked up)
chain: PRGADQENMLKISGYPGMLNTFGIAQLLTPYRVNGITITGAQSAVVALENKFQVYQAVQDFNGKKLDRNHKLQVSSLVV
binding result (TOFU-6^RRM): binds

B7: PID-3^RRM A220E (protein)
chain: PRGADQENMLKISGYPGMLNTFGIEQLLTPYRVNGITITGAQSAVVALENKFQVYQAVQDFNGKKLDRNHKLQVSSLVV
modifications: left off: His6, N-terminal, kept | GST, N-terminal, kept
oligomeric state [7]: monomeric

B8: PID-3^RRM F247E/Q251R (protein)
chain: PRGADQENMLKISGYPGMLNTFGIAQLLTPYRVNGITITGAQSAVVALENKEQVYRAVQDFNGKKLDRNHKLQVSSLVV
modifications: left off: His6, N-terminal, kept | GST, N-terminal, kept
oligomeric state [7]: homodimeric

B9: PID-3^RRM F247E/Q251R (purified) (domain or fragment, C. elegans, UniProt O76616 196-274, looked up)
chain: PRGADQENMLKISGYPGMLNTFGIAQLLTPYRVNGITITGAQSAVVALENKEQVYRAVQDFNGKKLDRNHKLQVSSLVV
stoichiometry N (SEC-MALS): 2

B10: I182E and S185E: GST-tagged PID-3 mutant(s), Ile182 and Ser185 to glutamate (conjugate, UniProt O76616 1-307, looked up, variant I182E S185E)
Protein pid-3: MVAHQKADFKSKWAMVVTVNNLNDKKRADLREFSEWFIETLRLEGAFIGHYFNYEAAPVTIVETLPGNFDSCTNAYQKIHKEHPQVVLVVHILPQSQSNEYEWMKVLASRYGFVRQGLLYDNCANRFQNVETDQNSVFRNMCQWIYRSGTAIVRNEGNACGILHGKDPKPTFDKVLFNSEDEKDEVFKVLHAEEEPRGADQENMLKISGYPGMLNTFGIAQLLTPYRVNGITITGAQSAVVALENKFQVYQAVQDFNGKKLDRNHKLQVSSLVVSSPAVPLEWPSLKKSKKLVEQVGKPIRLSKVSS
modifications: GST tag
binding to ERH-2 in GST pull-down (ERH-2 [1]): completely abrogated binding of PID-3^pep to ERH-2

B11: I182A and V186A: GST-tagged PID-3 mutant(s), Ile182 and Val186 to alanine (conjugate, UniProt O76616 1-307, looked up, variant I182A V186A)
Protein pid-3: MVAHQKADFKSKWAMVVTVNNLNDKKRADLREFSEWFIETLRLEGAFIGHYFNYEAAPVTIVETLPGNFDSCTNAYQKIHKEHPQVVLVVHILPQSQSNEYEWMKVLASRYGFVRQGLLYDNCANRFQNVETDQNSVFRNMCQWIYRSGTAIVRNEGNACGILHGKDPKPTFDKVLFNSEDAKDSAFKVLHAEEEPRGADQENMLKISGYPGMLNTFGIAQLLTPYRVNGITITGAQSAVVALENKFQVYQAVQDFNGKKLDRNHKLQVSSLVVSSPAVPLEWPSLKKSKKLVEQVGKPIRLSKVSS
modifications: GST tag
binding to ERH-2 in GST pull-down (ERH-2 [1]): sufficient to abolish binding

B12: ERH-1 (natural protein, C. elegans, UniProt Q22640 1-103, looked up)
chain: MSHTILLLQPTDNIESRSWSDYENTTECLEGICRVYEEYLKKKVPAQNEITYDISHLFEFIDDLKDLSMLVLDNTTYTYVPHNKQYVKESIYKLMNNRLNNQH
binding result (TOST-1-mVenus-Strep): binds

TFDKVLFNSEDIKDSVFKVLHAEEEPRGADQEN (peptide, UniProt O76616 171-203, looked up) [PID-3^pep]
stoichiometry N (full-length ERH-2^FL): 0.97

KYKTATNKRITLNERFGVLEKGYTIQ (peptide, UniProt Q18490 28-53, looked up) [TOST-1^pep]
Kd (full-length ERH-2^FL): 13 µM

B13: TOFU-6^RRM: TOFU-6 RRM domain, residues 1–99 (protein)
chain: MASSSTAYYLKDAGFHIRNIPKAWNDWNLFHVFQNFGKVSYCRVVGQSNDGQVQLGFVNMMSVADADEVRKNLNDGNLIGENFTLKVTDHKNVGGSLLP
modifications: left off: His10, N-terminal, state not stated | MBP, N-terminal, state not stated
PID-3/TOFU-6 interaction in pull-down (PID-3/TOFU-6 interaction): the RRM domains of PID-3 and TOFU-6 mediate the interaction between the two proteins | Kd [8]: ~60 µM
